The values that follow come from PMC5382158 (Frontiers in Cellular and Infection Microbiology, 2017).

Test [1] deals with NarI-T25 (M. tuberculosis). The test is described as follows: two-hybrid.
The target of the next test is T1, Rv2617c-T25 (M. tuberculosis, UniProt I6XER9 1-146).
T1 sequence: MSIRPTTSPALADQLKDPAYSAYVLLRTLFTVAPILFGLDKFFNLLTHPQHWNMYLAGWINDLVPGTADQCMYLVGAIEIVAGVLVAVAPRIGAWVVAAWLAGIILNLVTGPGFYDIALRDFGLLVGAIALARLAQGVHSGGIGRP
The test is described as follows: two-hybrid. Particulars: partners not purified.

Molecule KdpF-T18 (peptide) yielded a β-galactosidase activity in test [1] of 1200 Miller units.
In the test with Rv2617c-T25, MTTVDNIVGLVIAVALMAFLFAALLFPEKF [KdpF-T18] yielded a β-galactosidase activity of 2030 Miller units.
